Source: paper PMC6200766, “Fisetin targets YB-1/RSK axis independent of its effect on ERK signaling: insights from in vitro and in vivo melanoma models” (Scientific Reports, 2018)

Tests used:
Details in all cases: both partners purified
[1] = biological target: T1, RPS6KA3 (RSK2, 86.3 kDa) recombinant human protein, full length, HIS-tag (human, UniProt P51812 1-740); assay: SPR; Biacore T-200, 25 °C; GST-YB-1 (51-139) amine-coupled on a CM5 chip; RSK2 flowed at 50, 25, 12.5, 6.25, 3.125, 0 nM, 30 ul/min; 10 mM HEPES pH 7.4, 150 mM NaCl, 3 mM EDTA, 0.05% P20, 0.1% BSA; full kinetics
T1 construct: p90 ribosomal S6 kinase 2 (RSK2, RPS6KA3), human, full length, 86.3 kDa; source: bought: Life Technologies, Italy
T1 sequence (P51812 whole entry): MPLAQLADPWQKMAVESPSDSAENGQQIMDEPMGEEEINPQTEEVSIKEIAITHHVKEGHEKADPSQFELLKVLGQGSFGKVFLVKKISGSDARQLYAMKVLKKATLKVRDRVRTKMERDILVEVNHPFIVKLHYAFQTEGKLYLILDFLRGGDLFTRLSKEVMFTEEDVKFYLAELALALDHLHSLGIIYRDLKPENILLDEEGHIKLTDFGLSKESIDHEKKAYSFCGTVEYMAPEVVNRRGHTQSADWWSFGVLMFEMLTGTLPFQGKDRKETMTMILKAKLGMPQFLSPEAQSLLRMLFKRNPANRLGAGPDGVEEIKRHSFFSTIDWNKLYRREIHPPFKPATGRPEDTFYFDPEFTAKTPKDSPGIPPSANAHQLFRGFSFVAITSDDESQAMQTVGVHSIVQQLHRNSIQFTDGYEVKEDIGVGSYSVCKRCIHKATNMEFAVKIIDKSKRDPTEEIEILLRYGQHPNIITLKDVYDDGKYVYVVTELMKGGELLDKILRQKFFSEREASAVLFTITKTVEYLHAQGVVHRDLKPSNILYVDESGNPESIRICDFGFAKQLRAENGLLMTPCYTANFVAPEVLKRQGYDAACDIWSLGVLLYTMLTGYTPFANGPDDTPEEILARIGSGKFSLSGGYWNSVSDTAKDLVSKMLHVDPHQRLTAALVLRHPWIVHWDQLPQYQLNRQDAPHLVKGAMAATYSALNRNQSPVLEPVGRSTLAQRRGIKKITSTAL

[2] = biological target: T1, RPS6KA3 (RSK2, 86.3 kDa) recombinant …; assay: SPR; Biacore T-200, 25 °C; GST-YB-1 (51-139), 60 RU, amine-coupled on a CM5 chip; RSK1 or RSK2 flowed at 100-0 nM without BSA, 30 ul/min; full kinetics; KD from ka and kd or steady state
[3] = biological target: T2, RPS6KA1 (RSK1, 88.5 kDa) recombinant human protein, full length, HIS-tag (human, UniProt Q15418 1-735); assay: as above
T2 construct: p90 ribosomal S6 kinase 1 (RSK1, RPS6KA1), human, full length, 88.5 kDa; source: bought: Life Technologies, Italy
T2 sequence (Q15418 whole entry): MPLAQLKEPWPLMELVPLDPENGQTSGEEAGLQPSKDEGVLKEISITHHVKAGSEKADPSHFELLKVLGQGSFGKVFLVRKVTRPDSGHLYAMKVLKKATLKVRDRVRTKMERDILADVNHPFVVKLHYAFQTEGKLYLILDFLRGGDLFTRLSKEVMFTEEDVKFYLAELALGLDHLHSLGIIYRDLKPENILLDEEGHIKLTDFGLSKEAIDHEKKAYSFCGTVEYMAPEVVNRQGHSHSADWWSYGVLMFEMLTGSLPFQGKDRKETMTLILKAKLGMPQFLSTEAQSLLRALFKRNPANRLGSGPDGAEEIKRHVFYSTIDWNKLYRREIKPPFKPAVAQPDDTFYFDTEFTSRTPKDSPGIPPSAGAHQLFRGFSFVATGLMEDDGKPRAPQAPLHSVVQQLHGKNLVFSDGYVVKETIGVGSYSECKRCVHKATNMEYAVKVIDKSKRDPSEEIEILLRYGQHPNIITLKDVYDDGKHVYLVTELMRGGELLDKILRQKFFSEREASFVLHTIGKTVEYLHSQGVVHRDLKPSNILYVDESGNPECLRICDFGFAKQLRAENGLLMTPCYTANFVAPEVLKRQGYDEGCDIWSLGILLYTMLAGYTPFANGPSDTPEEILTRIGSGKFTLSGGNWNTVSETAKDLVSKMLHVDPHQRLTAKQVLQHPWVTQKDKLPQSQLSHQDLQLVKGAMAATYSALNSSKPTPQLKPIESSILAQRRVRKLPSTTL

B1: YB-1 human recombinant protein with GST-tag at N-terminal (51-139 aa) (domain or fragment)
chain: not shown
notes: 35 kDa including GST tag; Immobilised by amine coupling (EDC/NHS) on a CM5 chip with its GST tag; source: bought: Abnova Corporation, Taiwan; not shown: GST, N-terminal, kept
Kd [1]: 402 nM
Kd [2]: 534 nM
Kd [3]: 246000 nM
